Results published in article PMC10838372 (Journal of inherited metabolic disease, 2023).
Numbering of substitutions follows the chain as printed. Names and notes keep the numbering of the source.

B1: dihydroorotase (DHO) domain of human CAD, wild type (domain or fragment, UniProt P27708 1456-1846, looked up)
chain: MTSQKLVRLPGLIDVHVHLREPGGTHKEDFASGTAAALAGGITMVCAMPNTRPPIIDAPALALAQKLAEAGARCDFALFLGASSENAGTLGTVAGSAAGLKLYLNETFSELRLDSVVQWMEHFETWPSHLPIVAHAEQQTVAAVLMVAQLTQRSVHICHVARKEEILLIKAAKARGLPVTCEVAPHHLFLSHDDLERLGPGKGEVRPELGSRQDVEALWENMAVIDCFASDHAPHTLEEKCGSRPPPGFPGLETMLPLLLTAVSEGRLSLDDLLQRLHHNPRRIFHLPPQEDTYVEVDLEHEWTIPSHMPFSKAHWTPFEGQKVKGTVRRVVLRGEVAYIDGQVLVPPGYGQDVRKWPQGAVPQLPPSAPATSEMTTTPERPRRGIPGLPD
modifications: carboxylated lysine (KCX) at K1556
B2: DHO domain of human CAD, variant R1810Q (domain or fragment, UniProt P27708 1456-1846, looked up)
chain: B1 chain with R355Q
B3: DHO domain of human CAD, variant R1475Q (domain or fragment, UniProt P27708 1456-1846, looked up)
chain: B1 chain with R20Q
B4: DHO domain of human CAD, variant R1617Q (domain or fragment, UniProt P27708 1456-1846, looked up)
chain: B1 chain with R162Q
B5: DHO domain of human CAD, variant R1785C (domain or fragment, UniProt P27708 1456-1846, looked up)
chain: B1 chain with R330C
B6: DHO domain of human CAD, variant R1789Q (domain or fragment, UniProt P27708 1456-1846, looked up)
chain: B1 chain with R334Q
B7: DHO domain of human CAD, variant R1722W (domain or fragment, UniProt P27708 1456-1846, looked up)
chain: B1 chain with R267W
B8: DHO domain of human CAD, variant K1482M (domain or fragment, UniProt P27708 1456-1846, looked up)
chain: B1 chain with K27M
B9: DHO domain of human CAD, variant K1556T (domain or fragment, UniProt P27708 1456-1846, looked up)
chain: B1 chain with K101T

Target: the molecule itself
Assay: SEC

| Protein | stoichiometry N |
| --- | --- |
| B1 | 2 |
| B2 | 2 |
| B3 | 2 |
| B4 | 2 |
| B5 | 2 |
| B6 | 2 |
| B7 | 2 |
| B8 | 2 |
| B9 | 2 |
